± gives the uncertainty stated by the source.
Assay: self-splicing fitness, log relative to wild type (ln ratio); higher = more splicing; Tetrahymena group I intron in knt gene, E. coli kanamycin selection, DiMSum; sequences stand for … in CUCUCU…GGAGGGAAAAGUUAUCAGGCAUGCACCUGGUAGCUAGUCUUUAAACCAAUAGAUUGCAUCGGUUUAAAAGGCAAGACCGUCAAAUUGCGGGAAAGGGGUCAACAGCCGUUCAGUACCAAGUCUCAGGGGAAACUUUGAGAUGGCCUUGCAAAGGGUAUGGUAAUAAGCUGACGGACAUGGUCCUAACCACGCAGCCAAGUCCUAAGUCAACAGAUCUUCUGUUGAUAUGGAUGCAGUUCACAGACUAAAUGUCGGUCGGGGAAGAUGUAUUCUUCUCAUAAGAUAUAGUCGGACCUCUCCUUAAUGGGAGCUAGCGGAUGAAGUGAUGCAACACUGGAGCCGCUGGGAACUAAUUUGUAUGCGAAAGUAUAUUGAUUAGUUUUGGAGUACUCGUGGUCG
Procedure, shortened: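 A randomised library covering all eight P1ex-region intron nucleotides was built with the intron in the knt kanamycin-resistance gene on pET-22b(+) and held in E. coli BL21(DE3). Cells were grown overnight at 37°C or 30°C on LB agar, with or without 25 μg/mL kanamycin, plus 100 μg/mL carbenicillin, 50 μM IPTG and 0.2% rhamnose, and pooled colonies were amplicon-sequenced on an Illumina HiSeq 2500. DiMSum fitness is the error-weighted combination of wild-type-normalised replicate fold changes, kanamycin versus none.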

Row | Sequence | self-splicing fitness (ln) (30 °C) | self-splicing fitness (ln) (37 °C)
1 | GAAUAGCAAUAUUACGUCAU | -1.07 ± 0.1 | -0.865 ± 0.13
2 | ACGUAGCAAUAUUACGUUCC | -3.29 ± 0.24 | -2.04 ± 0.23
3 | CCAUAGCAAUAUUACGGCAC | – | -1.84 ± 0.28
4 | CUCGAGCAAUAUUACGAACU | -3.1 ± 0.26 | -2.8 ± 0.43
5 | UUUCAGCAAUAUUACGCGGG | -2.27 ± 0.12 | -2.35 ± 0.15
6 | CUUUAGCAAUAUUACGCGUG | -1.89 ± 0.14 | -1.12 ± 0.17
7 | GAUCAGCAAUAUUACGAAGG | -2.62 ± 0.13 | -1.59 ± 0.14
8 | UACCAGCAAUAUUACGUUGU | -3.56 ± 0.12 | -2.66 ± 0.12
9 | ACUUAGCAAUAUUACGGACC | -0.607 ± 0.15 | -0.756 ± 0.25
10 | GUUUAGCAAUAUUACGCAUU | -1.53 ± 0.11 | -0.487 ± 0.12
11 | AUAGAGCAAUAUUACGGGCU | -4.11 ± 0.27 | -2.51 ± 0.29
12 | CUUAAGCAAUAUUACGUAAU | -2.96 ± 0.13 | -1.56 ± 0.12
13 | CCACAGCAAUAUUACGCUGC | -3.06 ± 0.17 | -2.72 ± 0.28
14 | UAUGAGCAAUAUUACGGGCG | -2.75 ± 0.16 | -2.12 ± 0.2
15 | GUACAGCAAUAUUACGACCC | -0.186 ± 0.36 | 0.979 ± 0.36
16 | AACGAGCAAUAUUACGUUAC | -3.45 ± 0.29 | -0.155 ± 0.15
17 | AAAGAGCAAUAUUACGUUAA | -3.16 ± 0.25 | -2.28 ± 0.28
18 | ACAGAGCAAUAUUACGGCUA | -3.1 ± 0.23 | -1.41 ± 0.14
19 | AUCGAGCAAUAUUACGUACC | -3.76 ± 0.35 | -1.53 ± 0.34

Row | Sequence | self-splicing fitness (ln) (30 °C) | self-splicing fitness (ln) (37 °C)
20 | GGGAAGCAAUAUUACGUGAG | -0.751 ± 0.12 | -1.46 ± 0.12
21 | GUGAAGCAAUAUUACGAAUU | -0.957 ± 0.18 | -0.439 ± 0.21
22 | GGUCAGCAAUAUUACGGGUG | -1.3 ± 0.067 | -0.637 ± 0.072
23 | AAUUAGCAAUAUUACGACUC | -0.246 ± 0.11 | 0.0749 ± 0.16
24 | CCAAAGCAAUAUUACGUCGG | -3.29 ± 0.18 | -2.23 ± 0.2
25 | AAACAGCAAUAUUACGUGCG | -1.52 ± 0.053 | -0.389 ± 0.065
26 | UUGAAGCAAUAUUACGGCAA | 0.615 ± 0.092 | 0.402 ± 0.12
27 | GGGCAGCAAUAUUACGCGAC | -2.37 ± 0.13 | -2.17 ± 0.21
28 | AUCAAGCAAUAUUACGCCUC | -2.77 ± 0.23 | -1.6 ± 0.21
29 | CAGGAGCAAUAUUACGGAAU | -2.62 ± 0.29 | -2.58 ± 0.39
30 | CCUCAGCAAUAUUACGUGCA | -4.09 ± 0.37 | -2.32 ± 0.35
31 | CCGAAGCAAUAUUACGGAGC | -1.9 ± 0.33 | -2.74 ± 0.44
32 | UAAUAGCAAUAUUACGAGAC | -3.38 ± 0.28 | -2.03 ± 0.28
33 | GGAAAGCAAUAUUACGAUUC | -1.84 ± 0.16 | -0.276 ± 0.16
34 | CUUAAGCAAUAUUACGAGUG | -1.39 ± 0.068 | -0.428 ± 0.1
35 | GGCCAGCAAUAUUACGCUAU | -1.35 ± 0.054 | -1.02 ± 0.063
36 | AGGGAGCAAUAUUACGCGGC | -1.89 ± 0.2 | -2.05 ± 0.31
37 | GCGGAGCAAUAUUACGCCAA | -2.32 ± 0.44 | –
38 | ACGAAGCAAUAUUACGUAAU | -2.57 ± 0.087 | -1.23 ± 0.088
